Data on eleven sequences can be found in the DeepSol protein solubility set.

A short description of the data set: soluble on expression in E. coli; label from the status in PepcDB or PDB records.
For “MSLEAKRPEQTRVVVGMSGGVDSSVTALLLKEQGYDVIGIFMKNWDDTDENGVCTATEDYQDVVQVCNQLGIAYYAVNFEKEYWDKVFTYFLEEYKAGRTPNPDVMCNKEIKFKAFLNHALTLGADYVATGHYAQVKNVDGQYQLIRGKDPNKDQTYFLNALSQQQLSRVMFPLGHLEKKEVRAIAERAGLATAKKKDSTGICFIGKRDFKEFLSSYLPAQPGEMQTLDGEVKGTHDGLMYYTLGQRQGLGIGGSGEPWFVIGKNLEKNILYVGQGFHHPGLYSEGLRAIKVNWILRRESDEPFECTAKFRYRQPDQKVTVYPQSDGAVEVLFAEPQRAITPGQAVVFYDGDVCLGGGTIDHVLKKKEDRESAEGHHHHHH”, the “soluble on expression in E. coli” value is “soluble”. To “MKPIDEFLYVKQNYLTSDTNSLMRLYFPIIGSDAAGLYQYFVSFFDNGEKKHKFSEILNHTQFGMACFENALSVLTAMDLLVFYRQENLYYIKLKAPLNAETFLKNAVYRHLLEQKIGQVAVEHLDLHLPREAQDLSKQFSEVFTAAGQLDLKTPKSKTDFDLDHFKDLMIRDNLQFTDEQTDVIALYILSEKYQLTWYETYLLAKETASNYRISLKRMQAKQEQRDHVDADNSFSKKEQIIIEEAKADKVEVFLAKIKKTRHAAITKDERSLLAELAEMGFLDEVINIMLLYTLDKTNTANINKTYIMKIANDFAFQKIDSAEKAVLKLRSFAERKTKQNQKKIKESSKNNVPEWSNQDYQNNTTADEQARLDEIKRKTLAR” belongs “not soluble”; to “MGHHHHHHSHMAFILCPLTCPGECEGSTGKLECCLCLPSQWAVLTAAPHPYRWSQEAGRVGEGKIGKTGRPRPRQNSLSSLHFWSPVVMCL”, “not soluble”; to “MVRYFGFLANRVCGEKLPQVYRALGMDKPEPVAKVCYAQMVKQFLSRDPFECVLCGGRMVYRRAIAGLNVEGLKKNARDISLLRYMPA”, “not soluble”. With “DVQLQASGGGLVQPGGSLRVSCAASGFTFSSYHMAWVRQAPGKGLEWVSTINPGDGSTYYADSVKGRFTISRDNAKNTLYLQMNSLKSEDTAVYYCAKYSGGALDAWGQGTQVTVSSQSEQKLISEEDLNHHHHH”, the “soluble on expression in E. coli” value is listed as “soluble”.

Turning to “SSKEAFDELSVLSAIYCEQGEFEVLEESPEKGVVFRVHTLIDNNEKTPLDIIFHISPEYPNTPPDISISSNHLSRRQCHDLRRSLLDTAQSLPAEPMVHGLMLWLQENFSDLIKTSSCHSAEVRPETTEETWTALLHLDHMRSKAKYIKLIEKWTLELRLTGRLFTGKLILILLQGTKENIKQYIHLLKSVKVDVDSSGKRCKEKMMSVLCEIPKPEDKIMMTTFEVKDILSLDDLRREFDLIGLNELYHQFVSSLT”, the “soluble on expression in E. coli” value is listed as “soluble”. Take “MAHHHHHHMSPYEYLFKYIIIGDTGVGKSCLLLQFTDKRFRADHDLTIGVEFGARLINLDNKQIKLQIWDTAGQESFRSITRSYYRGAAGALLVYDITRRETFNHLNRWLDEVRQNSNPHMAIILVGNKCDLERREVSAEEGAQFARQNGLIFLETSAKTAKNVEEAFLYTARKIYDNILEDVYDLSNESYGIKYGPNSQYSRVKLDIPSMPESRSGFSCC”: the “soluble on expression in E. coli” value is given as “soluble”. Take “MGSDKIHHHHHHMQVVYHLGAPCTDADQLIMSLLKNRLRLAQAGIFVPVPGRYRAVIRDTARALKGQPAGKEVQEALLDAIVDDAQVDRLVLSDPRFVCINRLVVQGAQIWPMIERAATGLRALFPEAHVEFFIGMRDPATLIPALFKASRFSDFAEFTENMQPHAVAWSETLRRLQLAHPDCRITAWCNEDTPLLWGEILRELAGVGPEGELDGINDLAVSIMEEEGLKRMGQWFGQNPPKTEAQRRRALTAFLERYAKAGEIEETLNLPGWDEALMAEMSQSYDQDMEVIARLPGVTLLVP”: the “soluble on expression in E. coli” value is reported as “not soluble”. With “INAVRAALLENAHFMEKFYLQNGRFKQTSTKWPSLPIKEAEGFCIRLNGIARGALDSKFMLKAVAIDKDKNPFIIKMNENLVTFICKKSASSCSDGLDYFKGNDKDCKLLK” the entry was “not soluble”; with “GSSALLDTDEVGSELDDSDDDYLISEGEEDGPDENLMLCLYDKVTRTKARWKCSLKDGVVTINRNDYTFQKAQVEAEWV”, “soluble”; with “MDIPQTKQDLELPKLAGTWHSMAMATNNISLMATLKAPLRVHITSLLPTPEDNLEIVLHRWENNSCVEKKVLGEKTENPKKFKINYTVANEATLLDTDYDNFLFLCLQDTTTPIQSMMCQYLARVLVEDDEIMQGFIRAFRPLPRHLWYLLDLKQMEEPCRF”, “soluble”.
